Experimental findings from US20020150888A1 (published 2002) are described below.

Like-named read-outs stand apart in the source and are kept apart here.

The chains are these.
B1: MIP-1β (ligand, UniProt P13236 24-92, looked up)
chain: APMGSDPPTACCFSYTARKLPRNFVVDYYETSSLCSQPAVVFQTKRSKQVCADPSESWVQEYVYDLELN
notes: also called MIP-1p
B2: RANTES (ligand, UniProt P13501 24-91, looked up)
chain: SPYSSDTTPCCFAYIARPLPRAHIKEYFYTSGKCSNPAVVFVTRKNRQVCANPEKKWVREYINSLEMS
B3: FLAG-tagged 88C receptor (receptor)
chain: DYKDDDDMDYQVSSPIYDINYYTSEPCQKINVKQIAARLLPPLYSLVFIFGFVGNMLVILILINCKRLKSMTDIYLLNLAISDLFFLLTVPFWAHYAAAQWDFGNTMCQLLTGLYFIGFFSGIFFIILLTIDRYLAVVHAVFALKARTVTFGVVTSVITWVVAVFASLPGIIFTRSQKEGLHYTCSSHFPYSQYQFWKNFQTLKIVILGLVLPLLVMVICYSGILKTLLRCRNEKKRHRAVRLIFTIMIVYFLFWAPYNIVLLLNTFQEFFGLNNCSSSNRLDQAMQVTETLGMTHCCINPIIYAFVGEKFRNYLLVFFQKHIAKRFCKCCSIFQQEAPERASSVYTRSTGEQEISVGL

Experiment [1] has as its target FLAG-tagged 88C receptor (human). The experiment is described as follows: cell-based or functional assay.
Experiment [2] shares this target. The experiment is described as follows: competition of unlabelled ligand with 1.5 nM 125I-MIP-1β on HEK-293 cells transfected with FLAG-tagged 88C.
Experiment [3] concerns the target B3. The experiment is described as follows: cell-based or functional assay.
Experiment [4] addresses B3. The experiment is described as follows: competition of unlabelled ligand with 1.5 nM 125I-MIP-1β on HEK-293 cells transfected with FLAG-tagged 88C.
The experiment “MIP-1β” has as its target B1. The experiment is described as follows: equilibrium binding of 125I-MIP-1β to HEK-293 cells transfected with FLAG-tagged 88C, Scatchard analysis.

The IC50 is the midpoint of a concentration-inhibition curve. A low value points to higher potency. With “MIP-1α (from UniProt P10147 24-92) (ligand)”, in experiment [1], the EC50 of inositol phosphate formation (phospholipase C assay, COS-7 cells co-transfected with Gqi5) is 22 nM. The IC50 in experiment [2] stood at 7.4 nM.

Turning to B1, in the experiment with FLAG-tagged 88C receptor [3], the “EC50 of inositol phosphate formation (phospholipase C assay, COS-7 cells co-transfected with Gqi5)” value stood at 6 nM. Moreover, the IC50 with FLAG-tagged 88C receptor [4] amounted to 7.4 nM.

As to B2, the “EC50 of inositol phosphate formation (phospholipase C assay, COS-7 cells co-transfected with Gqi5)” value with FLAG-tagged 88C receptor [3] stood at 1 nM. Also, the IC50 in the experiment with FLAG-tagged 88C receptor [4] amounted to 6.9 nM.

A word on the Kd: it is the constant that tells how readily two partners part at equilibrium. Higher therefore signals weaker binding. For B3, the Kd with MIP-1β worked out at 1.6 nM.
